Experimental data taken from the supplement of paper PMC10126150.
± gives the standard deviation of the averaged measurements.

Test system: ATP
Experiment: switch fluorescence ratio, 500 uM ATP over buffer (Cy3 cluster intensity, sum of 5 cycles each) (fold (ratio)); higher = stronger signal-on switching upon ATP binding; sequences stand for … in TCGTCGGCAGCGTCAGATGTGTATAAGAGACAGTTTTTTTTTTTTTTTTTTTTTTTTT…TC
Conditions: aptamer strand: ATP DNA aptamer (quencher-CACCTGGGGGAGTATTGCGGAGGAAGG + anchor), 100 nM annealed; ATP concentration: 500 uM
Summary of the method: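 Per cluster, summed Cy3 intensity from the target cycles was divided by that from the buffer cycles to give the fluorescence ratio, then averaged per switch-domain sequence. Clusters outside 100-1000 RFU were excluded. The Cy3-labelled switching-strand clusters, on a modified Illumina MiSeq flow-cell, were annealed to 100 nM quencher-labelled ATP aptamer and imaged in selection buffer, then after 15 min with 500 uM ATP at 22 °C, for five cycles with NaOH stripping and re-annealing between them.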
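Further: ATP exposure 15 min at 22 °C before imaging.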

CACGGCAGGG
switch fluorescence ratio: 1.01 ± 0.012

CACGGCGACA
switch fluorescence ratio: 1.15 ± 0.027

CACGGGAACA
switch fluorescence ratio: 1.082 ± 0.0053

CACGGGATGC
switch fluorescence ratio: 1.58 ± 0.12

CACGGGGGCG
switch fluorescence ratio: 1 ± 0.049

CACGGGGGGA
switch fluorescence ratio: 0.99 ± 0.033

CACGGGTTGC
switch fluorescence ratio: 1.02 ± 0.031

CACGGTTGGG
switch fluorescence ratio: 0.976 ± 0.034

CACGTAGTAA
switch fluorescence ratio: 1.13 ± 0.03

CACGTATGTT
switch fluorescence ratio: 1.09 ± 0.021

CACGTCTAGG
switch fluorescence ratio: 1.05 ± 0.048

CACGTGCCAG
switch fluorescence ratio: 0.985 ± 0.043

CACTCGCCCG
switch fluorescence ratio: 1.11 ± 0.042

CACTCTGCTG
switch fluorescence ratio: 1.19 ± 0.012

CACTGCGTCT
switch fluorescence ratio: 1.07 ± 0.11

CACTGGAAAA
switch fluorescence ratio: 1.04 ± 0.036

CACTGGAGGG
switch fluorescence ratio: 0.9937 ± 0.0042

CACTTAAGGC
switch fluorescence ratio: 1.05 ± 0.072

CACTTATTCT
switch fluorescence ratio: 0.973 ± 0.017

CACTTGGGTG
switch fluorescence ratio: 1.064 ± 0.0066

CACTTGGTTG
switch fluorescence ratio: 0.997 ± 0.051

CACTTGTTTT
switch fluorescence ratio: 1.01 ± 0.011

CAGAAAGGAC
switch fluorescence ratio: 1.02 ± 0.031

CAGAAGGGCC
switch fluorescence ratio: 0.997 ± 0.089

CAGAAGGTTT
switch fluorescence ratio: 1 ± 0.022

CAGACCGTTT
switch fluorescence ratio: 1.01 ± 0.018

CAGACGAGGC
switch fluorescence ratio: 1.044 ± 0.0037

CAGACGGATT
switch fluorescence ratio: 0.996 ± 0.0085

CAGACGGTAC
switch fluorescence ratio: 3.08 ± 0.089

CAGAGAATTT
switch fluorescence ratio: 1.004 ± 0.0046

CAGAGATCAT
switch fluorescence ratio: 0.993 ± 0.019

CAGAGGAGGG
switch fluorescence ratio: 0.9747 ± 0.008

CAGAGGATCA
switch fluorescence ratio: 0.996 ± 0.015

CAGAGGCCCG
switch fluorescence ratio: 1.02 ± 0.032

CAGAGGGGTA
switch fluorescence ratio: 1.01 ± 0.03

CAGAGGTATG
switch fluorescence ratio: 1.01 ± 0.028

CAGAGTCGGG
switch fluorescence ratio: 0.9963 ± 0.009

CAGAGTTTCT
switch fluorescence ratio: 1.02 ± 0.021

CAGAGTTTTA
switch fluorescence ratio: 1.02 ± 0.015

CAGATAAGGA
switch fluorescence ratio: 1.01 ± 0.026

CAGATGCAGA
switch fluorescence ratio: 1.065 ± 0.0071

CAGATGGGGA
switch fluorescence ratio: 1.012 ± 0.0036

CAGATGTCAA
switch fluorescence ratio: 0.993 ± 0.013

CAGATTTGGG
switch fluorescence ratio: 1.01 ± 0.035

CAGCAACGTA
switch fluorescence ratio: 1.05 ± 0.025

CAGCAATTAT
switch fluorescence ratio: 2.95 ± 0.28

CAGCAGGGGG
switch fluorescence ratio: 1.07 ± 0.068

CAGCATATAT
switch fluorescence ratio: 2.32 ± 0.053

CAGCCCGGTC
switch fluorescence ratio: 1.06 ± 0.048

CAGCGAACGG
switch fluorescence ratio: 1.02 ± 0.026

CAGCGAAGAG
switch fluorescence ratio: 1.01 ± 0.0025

CAGCGGCTTT
switch fluorescence ratio: 0.977 ± 0.032

CAGCGGGATT
switch fluorescence ratio: 0.995 ± 0.036

CAGCGGGGCC
switch fluorescence ratio: 0.994 ± 0.011

CAGCTAAATT
switch fluorescence ratio: 1.02 ± 0.047

CAGCTCAGCC
switch fluorescence ratio: 1 ± 0.042

CAGCTGCATT
switch fluorescence ratio: 1.305 ± 0.013

CAGCTGGATG
switch fluorescence ratio: 0.993 ± 0.029

CAGCTGGTAT
switch fluorescence ratio: 0.9992 ± 0.0011

CAGCTGGTTT
switch fluorescence ratio: 1.004 ± 0.0077

CAGCTGTGGT
switch fluorescence ratio: 0.985 ± 0.036

CAGCTTATCG
switch fluorescence ratio: 0.995 ± 0.014

CAGCTTGGGT
switch fluorescence ratio: 0.999 ± 0.04

CAGCTTTGAG
switch fluorescence ratio: 1.01 ± 0.037

CAGGAAAATG
switch fluorescence ratio: 0.994 ± 0.041

CAGGAATAGC
switch fluorescence ratio: 1.25 ± 0.044

CAGGAATAGG
switch fluorescence ratio: 1.03 ± 0.012

CAGGACAGCT
switch fluorescence ratio: 1.02 ± 0.02

CAGGACCCGA
switch fluorescence ratio: 0.99 ± 0.025

CAGGACCCGT
switch fluorescence ratio: 0.9965 ± 0.0019

CAGGACTCCG
switch fluorescence ratio: 0.98 ± 0.046

CAGGAGGCGG
switch fluorescence ratio: 1.02 ± 0.037

CAGGAGGGCT
switch fluorescence ratio: 0.993 ± 0.031

CAGGAGTCGG
switch fluorescence ratio: 1.01 ± 0.014

CAGGATCATC
switch fluorescence ratio: 0.9884 ± 0.0035

CAGGATGCAT
switch fluorescence ratio: 1.01 ± 0.02

CAGGATGCCC
switch fluorescence ratio: 0.9871 ± 0.0066

CAGGATGTAC
switch fluorescence ratio: 1.05 ± 0.063

CAGGATTCTG
switch fluorescence ratio: 1.03 ± 0.059

CAGGCAAGCT
switch fluorescence ratio: 1.061 ± 0.0071

CAGGCAGGAC
switch fluorescence ratio: 2.24 ± 0.17

CAGGCATGGT
switch fluorescence ratio: 0.9891 ± 0.002

CAGGCCATGG
switch fluorescence ratio: 1.03 ± 0.094

CAGGGAAGGT
switch fluorescence ratio: 1.01 ± 0.033

CAGGGAATAA
switch fluorescence ratio: 0.997 ± 0.011

CAGGGAATGT
switch fluorescence ratio: 0.9984 ± 0.0077

CAGGGAATTG
switch fluorescence ratio: 0.989 ± 0.075

CAGGGACGGT
switch fluorescence ratio: 0.975 ± 0.058

CAGGGATTTG
switch fluorescence ratio: 0.9599 ± 0.0044

CAGGGCGACA
switch fluorescence ratio: 0.9924 ± 0.0012

CAGGGCGCCT
switch fluorescence ratio: 1.012 ± 0.002

CAGGGCGTAT
switch fluorescence ratio: 1 ± 0.026

CAGGGCTTGA
switch fluorescence ratio: 1.03 ± 0.093

CAGGGGCTGT
switch fluorescence ratio: 0.997 ± 0.038

CAGGGGGAAC
switch fluorescence ratio: 1.04 ± 0.061

CAGGGGGGAT
switch fluorescence ratio: 1.04 ± 0.067

CAGGGGGGTC
switch fluorescence ratio: 1.022 ± 0.0065

CAGGGGGTAG
switch fluorescence ratio: 1.01 ± 0.027

CAGGGGGTAT
switch fluorescence ratio: 0.997 ± 0.026

CAGGGTGCCA
switch fluorescence ratio: 1.003 ± 0.0003

CAGGTAAAAG
switch fluorescence ratio: 1.01 ± 0.035

CAGGTACATT
switch fluorescence ratio: 1.02 ± 0.049

CAGGTAGATG
switch fluorescence ratio: 0.9959 ± 0.0086

CAGGTAGGGT
switch fluorescence ratio: 1.01 ± 0.052

CAGGTAGGTA
switch fluorescence ratio: 0.977 ± 0.014

CAGGTAGTCT
switch fluorescence ratio: 0.997 ± 0.024

CAGGTATATG
switch fluorescence ratio: 1.01 ± 0.017

CAGGTATGAA
switch fluorescence ratio: 1 ± 0.02

CAGGTCGACT
switch fluorescence ratio: 0.972 ± 0.03

CAGGTGGTTG
switch fluorescence ratio: 1.01 ± 0.035

CAGGTGTATG
switch fluorescence ratio: 1.273 ± 0.0042

CAGGTGTGGG
switch fluorescence ratio: 1.2 ± 0.1

CAGGTTCACC
switch fluorescence ratio: 1.03 ± 0.012

CAGGTTGTTC
switch fluorescence ratio: 1.005 ± 0.0011

CAGGTTTATA
switch fluorescence ratio: 0.993 ± 0.022

CAGGTTTGTT
switch fluorescence ratio: 1.12 ± 0.17

CAGTAAAGGG
switch fluorescence ratio: 0.9703 ± 0.0059

CAGTAGAGG
switch fluorescence ratio: 0.979 ± 0.019

CAGTAGATGG
switch fluorescence ratio: 0.985 ± 0.024

CAGTAGGCAA
switch fluorescence ratio: 2 ± 0.15

CAGTAGGCGC
switch fluorescence ratio: 1.01 ± 0.011

CAGTAGGGAG
switch fluorescence ratio: 0.987 ± 0.022

CAGTAGGGGG
switch fluorescence ratio: 0.977 ± 0.068

CAGTAGTAGT
switch fluorescence ratio: 1.02 ± 0.0097

CAGTAGTCGC
switch fluorescence ratio: 1.01 ± 0.03

CAGTATAAAG
switch fluorescence ratio: 0.9738 ± 0.0068

CAGTATCTGA
switch fluorescence ratio: 1 ± 0.0047

CAGTCATGCC
switch fluorescence ratio: 0.971 ± 0.058

CAGTCGGAGA
switch fluorescence ratio: 1.02 ± 0.037

CAGTCTGCTC
switch fluorescence ratio: 1.05 ± 0.03

CAGTCTGCTG
switch fluorescence ratio: 1.0037 ± 0.00071

CAGTCTGGTA
switch fluorescence ratio: 0.9966 ± 0.0042

CAGTGACTTT
switch fluorescence ratio: 1.022 ± 0.0014

CAGTGCATC
switch fluorescence ratio: 0.972 ± 0.053

CAGTGCGTTT
switch fluorescence ratio: 1.01 ± 0.013

CAGTGGATAC
switch fluorescence ratio: 1.2218 ± 0.00027

CAGTGGGAAA
switch fluorescence ratio: 1.01 ± 0.029

CAGTGGTGGG
switch fluorescence ratio: 1.01 ± 0.04

CAGTGTAGGG
switch fluorescence ratio: 1.017 ± 0.01

CAGTGTGCAG
switch fluorescence ratio: 0.9602 ± 0.0028

CAGTGTTAGG
switch fluorescence ratio: 1 ± 0.034

CAGTTAAGTA
switch fluorescence ratio: 0.973 ± 0.028

CAGTTAGAAA
switch fluorescence ratio: 0.9952 ± 0.0075

CAGTTCCCGG
switch fluorescence ratio: 1.02 ± 0.063

CAGTTCGTGT
switch fluorescence ratio: 1.02 ± 0.022

CAGTTGAACT
switch fluorescence ratio: 1.0209 ± 0.00023

CAGTTGACTC
switch fluorescence ratio: 1 ± 0.072

CAGTTGAGAA
switch fluorescence ratio: 1.02 ± 0.011

CAGTTGGACA
switch fluorescence ratio: 0.967 ± 0.031

CAGTTGGAGC
switch fluorescence ratio: 0.981 ± 0.06

CAGTTGGGAG
switch fluorescence ratio: 1.01 ± 0.029

CAGTTTAAGT
switch fluorescence ratio: 0.993 ± 0.01

CAGTTTTAGT
switch fluorescence ratio: 1.01 ± 0.032

CAGTTTTTGG
switch fluorescence ratio: 0.992 ± 0.013

CATAAAACGG
switch fluorescence ratio: 1.0263 ± 8.3e-05

CATAAAGAGT
switch fluorescence ratio: 0.996 ± 0.01

CATAAATGTT
switch fluorescence ratio: 1.02 ± 0.016
